In patent US20240092925A1 (NANJING IASO BIOTECHNOLOGY, published 2024):

Legend:
Assay in all cases: phage ELISA
[1] = molecular target: T1, Streptavidin (Pierce, 21125) (UniProt P22629 37-163, limits assumed)
T1 construct: coated on the ELISA plate; non-related antigen; also called SA

[2] = molecular target: T2, Biotinylated Recombinant human BAFFR Protein (Kactus, BAF-HM40RB) (human, UniProt Q96RJ3 7-71, limits assumed, biotinylated (site not stated))
T2 construct: bought; also called Kactus-BAFFR-his-Bio; not shown: his tag
T2 sequence (Q96RJ3 7-71 limits assumed): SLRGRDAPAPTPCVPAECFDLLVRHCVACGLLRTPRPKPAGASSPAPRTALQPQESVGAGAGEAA

[3] = molecular target: T3, Recombinant biotinylated Human CD19 Protein-Fc (Kactus, CD2-HE121) (human, UniProt P15391 20-291, biotinylated (site not stated))
T3 construct: bought; also called CD19-Fc-Bio; Kactus-CD19-FC-Bio; not shown: Fc tag
T3 sequence (looked up): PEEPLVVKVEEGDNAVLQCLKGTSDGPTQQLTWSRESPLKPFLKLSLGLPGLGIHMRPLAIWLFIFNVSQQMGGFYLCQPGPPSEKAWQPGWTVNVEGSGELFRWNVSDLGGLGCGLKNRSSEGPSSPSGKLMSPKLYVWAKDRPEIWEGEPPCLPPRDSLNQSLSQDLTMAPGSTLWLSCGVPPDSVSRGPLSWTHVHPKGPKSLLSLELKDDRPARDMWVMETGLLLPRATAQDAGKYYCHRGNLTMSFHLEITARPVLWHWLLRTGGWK

Measured: binding result

T1 sequence (P22629 37-163 limits assumed): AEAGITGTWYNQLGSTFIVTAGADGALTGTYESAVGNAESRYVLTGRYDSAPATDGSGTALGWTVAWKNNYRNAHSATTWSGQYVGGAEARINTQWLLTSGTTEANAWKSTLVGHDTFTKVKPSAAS

B1: phage monoclonal clone #61 (single-domain antibody) (VHH)
VHH: QVQLVQSGAEVKKPGSSVKVSCKASGGTFSNYAISWVRQAPGQGLEWMGWISAYNGDTKYAQRLQGRVTMTTDTSTSTAYMELRNLRSDDTAVYYCARYESMSGQDIWGQGTLVTVSS
no binding: all assays above

B2: phage monoclonal clone #42 (single-domain antibody) (VHH)
VHH: EVQLLESGGGLVQPGGSLRLSCAASGFTFSHSAMGWVRQAPGKGLEWVSSIYARGGYTYYADSVKGRFTISRDNSKNTLYLQMNSLRAEDTAVYYCARGYHLEYMVSQDVWGQGTLVTVSS
no binding: all assays above

B3: phage monoclonal clone #62 (single-domain antibody) (VHH)
VHH: QVQLVQSGAEVKKPGESLRISCKASGYSFSNHWIGWVRQKPGKGLEWMGSVYPGDSDTRYSPSFQGHVTVSADKSMNTAYLQWSSLKTSDTAMYYCARGGTIDGDYGGRQDFWGQGTMVTVSS
no binding: all assays above

B4: phage monoclonal clone #60 (single-domain antibody) (VHH)
VHH: QVQLVESGGGLVQPGGSLRLSCAASGFTFSSYEMNWVRQAPGKGLEWVSYISSSGSTIYYADSVKGRFTISRDNAKNSLYLQMNSLRAEDTAVYYCARVAQREGDVWGKGTTVTVSS
no binding: all assays above
